Target: the molecule itself
Experiment: crystal structure; seleno-methionine-labeled BACINT_01033-CE1, 20 mg/ml in 50 mM Tris pH 7.5, 150 mM NaCl; sitting drop, room temperature; P3_(1)21 form from 0.1 M BIS-Tris pH 6.5, 20% PEG 1,500; dimer in the asymmetric unit

B1: BACINT_01033-CE1 (carbohydrate esterase family 1, ferulic acid esterase) (enzyme, Bacteroides intestinalis DSM 17393)
chain: QQQDFPAGTTPNEHNINGADYPRIGEDRRVHFRIHAPNAQKVEISFRGEMTKEADGYWSLVSKEPEVIGFHYYQVIIDGVSAADPNGKPFFGMGKWVSGIEIPEKGVDYYSIKNVPHGLISQSWYYSDIRKEWRRCIVYTPAEYDKNPTKKYPVLYLQHGMGENETSWANQGKMNFIMDNLIAEGKAKPMIVVMDNGNIEVFKTNSGETPEDARKRFGAEFPAILVNEIIPHIESNFRTLTDRDNRAMAGLSWGGLLTFNTTLNNLDKFAYIGGFSGAGSIDLKQLDTVYGGVFKNRKAFNDKVHVFFLGIGSEEHPERTKNLSDGLQAAGINTIYYESPGTAHEFLTWRRCLKEFAPLLFKTK
modifications: seleno-methionine-labeled
notes: BACINT_01033-CE1 of Bacteroides intestinalis DSM 17393; N-terminal Ig-like fold of ~100 residues followed by the esterase domain (residues 126-383); predicted signal peptide; Cloned NdeI/XhoI into pET-28a; also called Bi1033-CE1; Bi1033; source: E. coli BL21 (DE3), seleno-methionine-labeled, purified (HisTrap, Superdex 200)
In the case of B1, the “stoichiometry N” value is reported as 2.

Reference: PMC7815789, “Degradation of complex arabinoxylans by human colonic Bacteroidetes” (Nature Communications, 2021)
